In patent US12097241B2, “Methods of treating kidney failure, and/or improving or stablizing renal function using modified relaxin polypeptides” (BRISTOL-MYERS SQUIBB COMPANY, priority 2017, dated 2024) one finds AUC(0-inf), level and EC50 data, which are given here for four compounds.

Data set [1] is described as follows: In vivo pharmacokinetic (PK) studies in rats. Further details: species or system Sprague-Dawley rats. The settings on record: rat, male Sprague-Dawley rats, single SC dose 1.0 mg/kg, serum ELISA; for AUC(0-inf): read-out: Rat PK AUC Total; for level at time molar at 24 h: read-out: Rat PK C24. In outline:
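Male Sprague-Dawley rats (n=3) given a single 1 mg/kg IV or SC dose of relaxin constructs in 20 mM histidine, 750 mM NaCl, pH 6.0; jugular serum sampled to 72 h. Serum relaxin by ELISA; Cmax, AUCinf, C24 and half-life from non-compartmental analysis of individual profiles.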
For orientation: An ELISA detects its analyte on a solid surface through an enzyme-linked reagent.

For the next data set, the target named is T1, human RXFP1 receptor (Homo sapiens, UniProt Q9HBX9).
T1 construct: expressed in transfected cells
T1 sequence (Q9HBX9 1-757): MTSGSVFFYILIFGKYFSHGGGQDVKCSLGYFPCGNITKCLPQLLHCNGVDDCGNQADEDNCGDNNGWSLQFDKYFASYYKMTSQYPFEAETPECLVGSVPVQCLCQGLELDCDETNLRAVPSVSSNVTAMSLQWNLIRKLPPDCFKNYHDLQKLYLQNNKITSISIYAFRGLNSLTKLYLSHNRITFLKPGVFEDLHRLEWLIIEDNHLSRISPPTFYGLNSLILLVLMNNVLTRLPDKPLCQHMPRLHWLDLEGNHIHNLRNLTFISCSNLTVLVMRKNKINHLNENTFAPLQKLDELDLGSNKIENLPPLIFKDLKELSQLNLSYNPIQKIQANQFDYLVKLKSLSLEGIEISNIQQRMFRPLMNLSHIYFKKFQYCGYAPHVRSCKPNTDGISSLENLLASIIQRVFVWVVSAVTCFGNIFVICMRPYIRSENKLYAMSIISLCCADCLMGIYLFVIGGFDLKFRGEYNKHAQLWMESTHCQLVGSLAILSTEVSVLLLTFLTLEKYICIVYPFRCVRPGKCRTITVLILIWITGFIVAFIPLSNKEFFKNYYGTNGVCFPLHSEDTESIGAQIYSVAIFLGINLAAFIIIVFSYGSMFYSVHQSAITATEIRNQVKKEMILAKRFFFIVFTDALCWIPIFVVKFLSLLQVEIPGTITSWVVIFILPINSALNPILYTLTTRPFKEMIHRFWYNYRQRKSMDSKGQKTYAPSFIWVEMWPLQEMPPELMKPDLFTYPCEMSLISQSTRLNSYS
The experiment in a line: Intracellular cAMP accumulation assay. It is filed as cell-based. On the technique in general: Cyclic AMP is a second messenger, typically raised through Gs and lowered through Gi signalling.

Setting [2] is: CHO-K1 cells stably expressing human RXFP1, 10 min at 37° C., HTRF cAMP, average, read-out: hRXFP1/CHO-K1 cAMP EC50 (nM, avg).

Where two headings read alike, the source gives them in different places.

Consider `CC[C@H](C)[C@@H]1NC(=O)[C@H](C)NC(=O)[C@H]([C@@H](C)CC)NC(=O)[C@H](CCC(N)=O)NC(=O)[C@H](C)NC(=O)[C@H](CCCNC(=N)N)NC(=O)[C@H](C(C)C)NC(=O)[C@H](CC(C)C)NC(=O)[C@H](CCC(=O)O)NC(=O)[C@H](CCCNC(=N)N)NC(=O)CNC(=O)[C@@H](NC(=O)[C@H](CC(C)C)NC(=O)[C@H](CCCCN)NC(=O)[C@@H](NC(=O)[C@@H](NC(=O)[C@H](CCC(=O)O)NC(=O)[C@H](CCC(=O)O)NC(=O)[C@H](CCSC)NC(=O)[C@H](Cc2c[nH]c3ccccc23)NC(=O)[C@H](CO)NC(=O)[C@H](C)N)C(C)C)[C@@H](C)CC)CSSC[C@@H]2NC(=O)[C@@H](NC(=O)[C@H](CCCCN)NC(=O)[C@H](CC(N)=O)NC(=O)[C@H](C)NC(=O)[C@H](CC(C)C)NC(=O)[C@H](C)NC(=O)[C@H](CO)NC(=O)[C@H](Cc3ccc(O)cc3)NC(=O)[C@H](CC(C)C)NC(=O)[C@@H](N)Cc3ccc(C(C)=NOCCNC(=O)[C@H](CC(=O)O)NC(=O)[C@H](CCCNC(=N)N)NC(=O)[C@H](CC(=O)O)NC(=O)[C@H](CC(=O)O)NC(=O)[C@H](CCCNC(=N)N)NC(=O)[C@H](CC(=O)O)NC(=O)CCCCCCCCCCCCC(=O)O)cc3)CSSC[C@H](NC(=O)CNC(=O)[C@H](C(C)C)NC(=O)[C@H](Cc3c[nH]cn3)NC2=O)C(=O)N[C@@H]([C@@H](C)O)C(=O)N[C@@H](CCCCN)C(=O)N[C@@H](CCCNC(=N)N)C(=O)N[C@@H](CO)C(=O)N[C@@H](CC(C)C)C(=O)N[C@@H](C)C(=O)N[C@@H](CCCNC(=N)N)C(=O)N[C@@H](Cc2ccccc2)C(=O)N[C@H](C(=O)O)CSSC[C@@H](C(=O)NCC(=O)N[C@@H](CCSC)C(=O)N[C@@H](CO)C(=O)N[C@H](C(=O)N[C@@H](Cc2c[nH]c3ccccc23)C(=O)N[C@@H](CO)C(=O)O)[C@@H](C)O)NC1=O` [AQ1-DRDDRD-C13-COOH], for which, in data set [1], the AUC(0-inf) worked out at 1.01 µM·h and the level at time molar at 24 h came to 0.38 nM. Moreover, the EC50 on human RXFP1 receptor (setting [2]) came to 0.32 nM.

Turning to `CCCCCCCCCCCCCC(=O)N[C@@H](CCC(=O)NCC(=O)NCC(=O)NCC(=O)N[C@@H](CCC(=O)O)C(=O)N[C@@H](CCC(=O)O)C(=O)N[C@@H](CCC(=O)O)C(=O)NCCON=C(C)c1ccc(C[C@H](N)C(=O)N[C@@H](CC(C)C)C(=O)N[C@@H](Cc2ccc(O)cc2)C(=O)N[C@@H](CO)C(=O)N[C@@H](C)C(=O)N[C@@H](CC(C)C)C(=O)N[C@@H](C)C(=O)N[C@@H](CC(N)=O)C(=O)N[C@@H](CCCCN)C(=O)N[C@H]2CSSC[C@@H]3NC(=O)CNC(=O)[C@H](C(C)C)NC(=O)[C@H](Cc4c[nH]cn4)NC(=O)[C@H](CSSC[C@H](NC(=O)[C@H](CC(C)C)NC(=O)[C@H](CCCCN)NC(=O)[C@@H](NC(=O)[C@@H](NC(=O)[C@H](CCC(=O)O)NC(=O)[C@H](CCC(=O)O)NC(=O)[C@H](CCSC)NC(=O)[C@H](Cc4c[nH]c5ccccc45)NC(=O)[C@H](CO)NC(=O)[C@H](C)N)C(C)C)[C@@H](C)CC)C(=O)NCC(=O)N[C@@H](CCCNC(=N)N)C(=O)N[C@@H](CCC(=O)O)C(=O)N[C@@H](CC(C)C)C(=O)N[C@@H](C(C)C)C(=O)N[C@@H](CCCNC(=N)N)C(=O)N[C@@H](C)C(=O)N[C@@H](CCC(N)=O)C(=O)N[C@@H]([C@@H](C)CC)C(=O)N[C@@H](C)C(=O)N[C@@H]([C@@H](C)CC)C(=O)N[C@H](C(=O)NCC(=O)N[C@@H](CCSC)C(=O)N[C@@H](CO)C(=O)N[C@H](C(=O)N[C@@H](Cc4c[nH]c5ccccc45)C(=O)N[C@@H](CO)C(=O)O)[C@@H](C)O)CSSC[C@@H](C(=O)O)NC(=O)[C@H](Cc4ccccc4)NC(=O)[C@H](CCCNC(=N)N)NC(=O)[C@H](C)NC(=O)[C@H](CC(C)C)NC(=O)[C@H](CO)NC(=O)[C@H](CCCNC(=N)N)NC(=O)[C@H](CCCCN)NC(=O)[C@H]([C@@H](C)O)NC3=O)NC2=O)cc1)C(=O)O` [AQ1-EEEGGG-Glu^γ-C13-CH3], in data set [1], the AUC(0-inf) came out at 0.274 µM·h and the level at time molar at 24 h was 0.4 nM. For the same compound, the EC50 on human RXFP1 receptor (setting [2]) was determined as 0.38 nM.

Consider `CC[C@H](C)[C@@H]1NC(=O)[C@H](C)NC(=O)[C@H]([C@@H](C)CC)NC(=O)[C@H](CCC(N)=O)NC(=O)[C@H](C)NC(=O)[C@H](CCCNC(=N)N)NC(=O)[C@H](C(C)C)NC(=O)[C@H](CC(C)C)NC(=O)[C@H](CCC(=O)O)NC(=O)[C@H](CCCNC(=N)N)NC(=O)CNC(=O)[C@@H](NC(=O)[C@H](CC(C)C)NC(=O)[C@H](CCCCN)NC(=O)[C@@H](NC(=O)[C@@H](NC(=O)[C@H](CCC(=O)O)NC(=O)[C@H](CCC(=O)O)NC(=O)[C@H](CCSC)NC(=O)[C@H](Cc2c[nH]c3ccccc23)NC(=O)[C@H](CO)NC(=O)[C@H](C)N)C(C)C)[C@@H](C)CC)CSSC[C@@H]2NC(=O)[C@@H](NC(=O)[C@H](CCCCN)NC(=O)[C@H](CC(N)=O)NC(=O)[C@H](C)NC(=O)[C@H](CC(C)C)NC(=O)[C@H](C)NC(=O)[C@H](CO)NC(=O)[C@H](Cc3ccc(O)cc3)NC(=O)[C@H](CC(C)C)NC(=O)[C@@H](N)Cc3ccc(/C(C)=N/OCCNC(=O)CN(C)C(=O)CN(C)C(=O)CN(C)C(=O)CN(C)C(=O)[C@H](CO)NC(=O)CC[C@H](NC(=O)CCCCCCCCCCCCC(=O)O)C(=O)O)cc3)CSSC[C@H](NC(=O)CNC(=O)[C@H](C(C)C)NC(=O)[C@H](Cc3c[nH]cn3)NC2=O)C(=O)N[C@@H]([C@@H](C)O)C(=O)N[C@@H](CCCCN)C(=O)N[C@@H](CCCNC(=N)N)C(=O)N[C@@H](CO)C(=O)N[C@@H](CC(C)C)C(=O)N[C@@H](C)C(=O)N[C@@H](CCCNC(=N)N)C(=O)N[C@@H](Cc2ccccc2)C(=O)N[C@H](C(=O)O)CSSC[C@@H](C(=O)NCC(=O)N[C@@H](CCSC)C(=O)N[C@@H](CO)C(=O)N[C@H](C(=O)N[C@@H](Cc2c[nH]c3ccccc23)C(=O)N[C@@H](CO)C(=O)O)[C@@H](C)O)NC1=O` [AQ1-Sar-Sar-Sar-Sar-Ser-Glu^γ-C13-COOH], for which the EC50 on human RXFP1 receptor (setting [2]) was determined as 0.32 nM.

`CC[C@H](C)[C@@H]1NC(=O)[C@H](C)NC(=O)[C@H]([C@@H](C)CC)NC(=O)[C@H](CCC(N)=O)NC(=O)[C@H](C)NC(=O)[C@H](CCCNC(=N)N)NC(=O)[C@H](C(C)C)NC(=O)[C@H](CC(C)C)NC(=O)[C@H](CCC(=O)O)NC(=O)[C@H](CCCNC(=N)N)NC(=O)CNC(=O)[C@@H](NC(=O)[C@H](CC(C)C)NC(=O)[C@H](CCCCN)NC(=O)[C@@H](NC(=O)[C@@H](NC(=O)[C@H](CCC(=O)O)NC(=O)[C@H](CCC(=O)O)NC(=O)[C@H](CCSC)NC(=O)[C@H](Cc2c[nH]c3ccccc23)NC(=O)[C@H](CO)NC(=O)[C@H](C)N)C(C)C)[C@@H](C)CC)CSSC[C@@H]2NC(=O)[C@@H](NC(=O)[C@H](CCCCN)NC(=O)[C@H](CC(N)=O)NC(=O)[C@H](C)NC(=O)[C@H](CC(C)C)NC(=O)[C@H](C)NC(=O)[C@H](CO)NC(=O)[C@H](Cc3ccc(O)cc3)NC(=O)[C@H](CC(C)C)NC(=O)[C@@H](N)Cc3ccc(/C(C)=N/OCCNC(=O)CCC(=O)NCCCNCCCCNCCCNC(=O)CC[C@H](NC(=O)CCCCCCCCCCCCCC(=O)O)C(=O)O)cc3)CSSC[C@H](NC(=O)CNC(=O)[C@H](C(C)C)NC(=O)[C@H](Cc3c[nH]cn3)NC2=O)C(=O)N[C@@H]([C@@H](C)O)C(=O)N[C@@H](CCCCN)C(=O)N[C@@H](CCCNC(=N)N)C(=O)N[C@@H](CO)C(=O)N[C@@H](CC(C)C)C(=O)N[C@@H](C)C(=O)N[C@@H](CCCNC(=N)N)C(=O)N[C@@H](Cc2ccccc2)C(=O)N[C@H](C(=O)O)CSSC[C@@H](C(=O)NCC(=O)N[C@@H](CCSC)C(=O)N[C@@H](CO)C(=O)N[C@H](C(=O)N[C@@H](Cc2c[nH]c3ccccc23)C(=O)N[C@@H](CO)C(=O)O)[C@@H](C)O)NC1=O` [AQ1-Spermine-Glu^γ-C14-COOH] came in with an EC50 at human RXFP1 receptor of 0.39 nM.
